Experimental data taken from the supplement of paper PMC12764529.
± gives the half width of the 95% confidence interval.

Tests used:
[1] = folding stability dG unfold from chymotrypsin proteolysis; higher = more stable
Method: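 Folding stability of de novo designed mini-proteins (<80 aa, no Cys; designed by TrROS, TrMRF, ProteinMPNN and the joint model) was measured by cDNA display proteolysis with trypsin and chymotrypsin. Each protease was used at 11 concentrations in a threefold dilution series plus a no-protease condition. K50 was inferred by Bayesian fitting of sequencing counts, and dG unfold was derived against a sequence-predicted unfolded-state K50 (Tsuboyama et al. method). Sequences shown include variable-length N-terminal GS-type padding (SAGGSAGG...) inside a display construct carrying a PA tag. Rows were kept only if the AF2 dimer inter-PAE was >15, to exclude likely homo-oligomers.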

[2] = folding stability dG unfold (combined trypsin and chymotrypsin); higher = more stable
Procedure, shortened: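 Designed mini-proteins (under 80 residues, no cysteine) in a PA-tagged cDNA display construct were digested with trypsin and chymotrypsin. Each protease was used at 11 concentrations (threefold dilutions) plus a no-protease condition, followed by sequencing. K50 was inferred by Bayesian fitting of sequencing counts, and unfolding free energy was derived against a sequence-predicted unfolded-state K50 and a shared folded-state K50, per protease or combined. Only designs with AlphaFold2 dimer inter-PAE above 15 were kept.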

Sequence | folding stability dG unfold [1] | folding stability dG unfold [2]
SAGGSSSTPRIKTSVSSSTTVTPLPGPTTLVTTTTTTTTTNPANGQQLSTTPTTSTTVVTPGTGAALSAGGS [r8_204_JUSTAS] | 0.797 ± 0.053 kcal/mol | 0.314 ± 0.12 kcal/mol
SAGGMLKVEVIEVPPDEVGPEKLRAEIKAKYPDVEVRFETLPDGTLRVTVEIPVPEEPSKPLPLEKKSAGGS [r16_535_JUSTAS] | 0.743 ± 0.077 kcal/mol | 0.482 ± 0.3 kcal/mol
SAGGGRMIKLTFKSGETKTIPLSSDYPDAKVEVSEKDDKLYITVTYPNGEKITYEFPLSEVESIEILSAGGS [r16_658_JUSTAS] | 4.526 ± 0.042 kcal/mol | 4.7 ± 0.1 kcal/mol
SAGGEELVIEFDSLEDALSAIYPRPDLDKVTLVVPGEGVPVVIPVTVTPPDLGVLGRSAEDRPVPLLGSAGG [r13_183_TrMRF] | -0.825 ± 0.2 kcal/mol | < -1 kcal/mol
SAGGSAGGLTITLPNGATVTINEDDLEVVEVTFEPAPPAPPVRTETRTVTETRTVTTLAPGEEASAGGSAGG [r6_585_TrROS_Hall] | 0.938 ± 0.035 kcal/mol | 0.403 ± 0.11 kcal/mol
SAGGSAGGSAGMVIKSPDGRIIEVEEEEEGEKLKIKRITYVGDKYTPSEEEIEVPPVDLKSAGGSAGGSAGG [r11_106_JUSTAS] | -0.201 ± 0.54 kcal/mol | < -1 kcal/mol
SAGGSAGGSAGMIVVPPEDLENLPPWYSVEPGEDSVTVWDESNPVVVPRDEPALVSPPERSAGGSAGGSAGG [r17_91_JUSTAS] | 0.72 ± 0.079 kcal/mol | -0.136 ± 0.22 kcal/mol
SAGGSAGGMKKYTFDSGYEFEIDGATEEEAIEKLKEEGYPLPVKKITAEEVKPEPPPPFERNLKSAGGSAGG [r6_688_JUSTAS] | 0.109 ± 0.23 kcal/mol | -0.451 ± 0.29 kcal/mol
SAGGSAGGSAGGSKIIRIKAKPNEKKEIKIDGKWYKLYADKDNPDRVYIERPDGTIDPASAGGSAGGSAGGS [r4_488_TrMRF] | 0.685 ± 0.14 kcal/mol | 0.26 ± 0.13 kcal/mol
SAGGSAGGSAGGSMKKVEVEIPYSFEGPPTFNPEEIEKKLKEEGINAKIKTKYIPKSKEKSAGGSAGGSAGG [r7_355_JUSTAS] | -0.145 ± 0.39 kcal/mol | -0.321 ± 0.7 kcal/mol
SAGGSAGGSTTMTLTITEYTNDPEGGVKKKKSTTESTVSPEEVEKVAEEVKKKSKNVKVTVNSSAGGSAGGS [r12_342_JUSTAS] | -0.315 ± 0.29 kcal/mol | -0.775 ± 0.23 kcal/mol
SAGGSAGGSAGGMPPEETVTVTIVESKPVPDPEGNPVEPLPVKTTTITVPASNPEALAAKSAGGSAGGSAGG [r7_439_JUSTAS] | 0.00655 ± 0.072 kcal/mol | -0.487 ± 0.21 kcal/mol
SAMELVLEESTELAEDPTNPGVLVPRTTTRELPVEPPPVVVIGSEENAKKLKKKGEVEVPPSGIILIPLSAG [r14_582_JUSTAS] | 0.517 ± 0.21 kcal/mol | 0.137 ± 0.24 kcal/mol
SAGGSAAPPFKVEIETEALPGPVVTRTIKVEPGSTVTIYDPGRDEALTFPVAPGTELVFTFDGTDASAGGSA [r15_224_TrMRF] | 0.849 ± 0.044 kcal/mol | 0.342 ± 0.1 kcal/mol
SAGGSAGGSAWYIRIKSPELRKKLKNAGGIKPTEREPNWVTFKFPGMPPKKRDKIRELIKDSAGGSAGGSAG [r3_398_TrROS] | -0.644 ± 0.49 kcal/mol | -0.969 ± 0.26 kcal/mol
SAGGMPVPKEKVKSVLYLPHPESDEPEVLVLAELGGKPVLFVIPSELSLEEAIKAVEEGVEAGPIDLGSAGG [r13_225_TrMRF] | 0.402 ± 0.14 kcal/mol | -0.355 ± 0.27 kcal/mol
SAGGSAGGSAGGSKRIRITIPENYRVRGPNGKQFSWNDIEELKASGFKPIEIEPLPPGASAGGSAGGSAGGS [r4_47_TrROS] | -1.06 ± 0.4 kcal/mol | < -1 kcal/mol
SAGGGMPLEELKDIPENLPPGARVRLRFPETGEEGVYVLREDGGYTVEVPGGVVEAPEDTEVTEIVPSAGGS [r8_162_TrMRF] | 0.414 ± 0.13 kcal/mol | -0.192 ± 0.17 kcal/mol
SAGGSAGGSAGMESKVVTLDVPLAPDETAEAVAARLRAADPAAVLLGYDPAAGRVTVRVASAGGSAGGSAGG [r11_465_JUSTAS] | 0.411 ± 0.078 kcal/mol | -0.332 ± 0.087 kcal/mol
SAGGSAGGSAGNPKYVMVPLKFPDGNPVNIMVSDDEIHIYDMGPNKWRWIPADDLPPEAFSAGGSAGGSAGG [r11_155_TrROS] | 0.666 ± 0.15 kcal/mol | 0.215 ± 0.15 kcal/mol
SAGGSAGHMIEKVTTTSPDNTTTTVSLTPPDAPLDIKLPNGASATQTPLPGGRLRVTTTTTTPAAASAGGSA [r15_523_JUSTAS] | 0.841 ± 0.062 kcal/mol | 0.338 ± 0.21 kcal/mol
SAGGSAGGSAGGMPVSVETKLIEKDPVEDVEISLETFPGTDLRVIVTKTKNEVKKTVIPKSAGGSAGGSAGG [r17_370_JUSTAS] | -0.252 ± 0.13 kcal/mol | -0.719 ± 0.51 kcal/mol
KDFGITFKSPETIEEIAKKLGPNVVPTDIKKDPKGYVYAKIPTPDGKETDIVIPADKYSYEEAVKFAKEAES [r1_279_TrMRF] | 0.228 ± 0.16 kcal/mol | -0.232 ± 0.13 kcal/mol
SAGGSSPPTTTRTFAHPDGRTTELTVPTLPDGTPVVTTTTGGTTTTLSLSQLEKLPSSWTFTSTSSSAGGSA [r2_431_JUSTAS] | -0.27 ± 0.24 kcal/mol | -0.971 ± 0.64 kcal/mol
